Experimental findings from patent publication US20220402980A1, “CHROMOGRANIN A-DERIVED PEPTIDES AND USES THEREOF” (OSPEDALE SAN RAFFAELE S.R.L., priority 2019, published 2022) are described below.

In this test the target is wild-type human integrin α5β1 (octyl β-D-glucopyranoside preparation) (human), P08648. Nature of the test: competitive binding assay on α5β1-coated plates, isoDGR/STV-HRP probe.
wild-type human integrin α5β1 (octyl β-D-glucopyranoside preparation) (human), P08648, sequence (P08648 42-1049, chain 1 of 2): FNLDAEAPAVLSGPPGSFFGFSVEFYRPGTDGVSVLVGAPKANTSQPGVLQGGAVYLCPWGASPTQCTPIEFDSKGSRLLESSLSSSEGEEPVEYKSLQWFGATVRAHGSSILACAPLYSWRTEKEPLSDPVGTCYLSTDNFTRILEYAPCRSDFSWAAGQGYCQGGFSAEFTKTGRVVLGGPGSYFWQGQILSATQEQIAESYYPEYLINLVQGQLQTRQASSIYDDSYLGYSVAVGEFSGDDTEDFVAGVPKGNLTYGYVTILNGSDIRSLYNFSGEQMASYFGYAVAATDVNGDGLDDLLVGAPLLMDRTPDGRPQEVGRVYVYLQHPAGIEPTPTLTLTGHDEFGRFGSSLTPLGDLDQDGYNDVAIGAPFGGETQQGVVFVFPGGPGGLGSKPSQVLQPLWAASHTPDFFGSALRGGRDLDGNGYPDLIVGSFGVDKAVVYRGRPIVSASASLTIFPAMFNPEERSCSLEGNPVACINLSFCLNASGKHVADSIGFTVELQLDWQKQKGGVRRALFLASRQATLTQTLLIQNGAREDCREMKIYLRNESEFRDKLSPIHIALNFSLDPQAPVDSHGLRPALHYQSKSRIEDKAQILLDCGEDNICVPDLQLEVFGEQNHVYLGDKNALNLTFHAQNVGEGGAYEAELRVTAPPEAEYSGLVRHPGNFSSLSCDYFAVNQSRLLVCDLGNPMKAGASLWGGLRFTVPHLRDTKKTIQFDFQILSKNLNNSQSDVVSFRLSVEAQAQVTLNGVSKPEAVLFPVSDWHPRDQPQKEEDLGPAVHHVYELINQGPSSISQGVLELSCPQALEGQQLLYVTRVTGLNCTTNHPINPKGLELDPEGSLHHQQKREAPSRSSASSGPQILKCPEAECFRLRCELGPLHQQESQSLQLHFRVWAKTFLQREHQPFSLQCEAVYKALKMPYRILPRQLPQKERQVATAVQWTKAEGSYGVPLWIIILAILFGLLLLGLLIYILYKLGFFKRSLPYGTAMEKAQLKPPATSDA
wild-type human integrin α5β1 (octyl β-D-glucopyranoside preparation) (human), P08648, sequence (P05556 21-798, chain 2 of 2, further chain): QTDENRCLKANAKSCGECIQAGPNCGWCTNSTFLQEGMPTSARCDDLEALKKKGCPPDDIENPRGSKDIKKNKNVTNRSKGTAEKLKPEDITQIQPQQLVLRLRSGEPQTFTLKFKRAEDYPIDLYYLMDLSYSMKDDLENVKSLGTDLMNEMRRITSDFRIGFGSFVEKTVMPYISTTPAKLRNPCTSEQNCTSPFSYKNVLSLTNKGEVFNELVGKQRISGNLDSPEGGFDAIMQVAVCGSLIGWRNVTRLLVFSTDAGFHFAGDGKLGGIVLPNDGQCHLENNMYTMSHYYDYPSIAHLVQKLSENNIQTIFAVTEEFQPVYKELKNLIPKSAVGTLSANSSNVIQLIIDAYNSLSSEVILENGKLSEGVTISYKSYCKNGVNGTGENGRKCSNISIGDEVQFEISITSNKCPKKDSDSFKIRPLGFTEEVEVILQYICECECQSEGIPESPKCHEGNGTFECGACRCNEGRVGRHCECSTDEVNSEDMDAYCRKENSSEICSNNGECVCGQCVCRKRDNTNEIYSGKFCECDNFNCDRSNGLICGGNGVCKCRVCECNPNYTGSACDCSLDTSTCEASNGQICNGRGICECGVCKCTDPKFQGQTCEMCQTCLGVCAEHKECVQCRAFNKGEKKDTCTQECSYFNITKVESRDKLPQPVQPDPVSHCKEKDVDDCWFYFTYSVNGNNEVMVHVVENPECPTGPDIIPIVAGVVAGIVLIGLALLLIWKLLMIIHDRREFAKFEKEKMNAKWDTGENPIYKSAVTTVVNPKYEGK

Turning to NAVPNLRGDLQVLAQKVART (modifications not checked) [foot and mouth disease virus-derived peptide A20FMDV2], the Ki (in general, a measure of affinity in units of concentration, obtained from inhibition or displacement) came out at 2.32 µM.
